Reference: doi:10.1101/2020.03.22.001966

Experiments:
Assay in all cases: SEC
[1] = target: wild-type SqrR (sulfide quinone reductase repressor), reduced (Rhodobacter capsulatus)
[2] = target: Acinetobacter baumannii BigR (Acinetobacter baumannii)
[3] = target: C9S/C107S SqrR (Rhodobacter capsulatus)
[4] = target: C9S/C41S SqrR (Rhodobacter capsulatus)
[5] = target: C9S SqrR, reduced (Rhodobacter capsulatus)

Q: With “wild-type SqrR (sulfide quinone reductase repressor), reduced (natural protein)” as the substance, how does the stoichiometry N [1] read?
A: Its stoichiometry N is 2.

Q: How did the stoichiometry N [2] turn out when “Acinetobacter baumannii BigR (natural protein)” was run?
A: The stoichiometry N was 2.

Q: With C9S/C107S SqrR (natural protein) as the substance, how does the stoichiometry N [3] read?
A: Its stoichiometry N is 2.

Q: For C9S/C41S SqrR (natural protein), which stoichiometry N [4] is on record?
A: Its stoichiometry N is 2.

Q: For C9S SqrR, reduced (natural protein), which stoichiometry N [5] is on record?
A: Its stoichiometry N is 2.
